Measured values as given in patent CN113501874A (SANGON BIOTECH SHANGHAI CO LTD, dated 2021).

Biological target: T1, 重组人CD47带his标签的蛋白 (human, UniProt Q08722 19-139, limits assumed)
T1 construct: Immunogen and ELISA coating antigen; also called 重组人CD47 his标签蛋白; 检测抗原; not shown: his tag
Test: indirect ELISA; CD47-his coated at 3, 1.5, 0.75 and 0.375 mg/L; K=(N-1)/(N*AB'-AB), mean of 6 K values

T1 sequence (Q08722 19-139 limits assumed): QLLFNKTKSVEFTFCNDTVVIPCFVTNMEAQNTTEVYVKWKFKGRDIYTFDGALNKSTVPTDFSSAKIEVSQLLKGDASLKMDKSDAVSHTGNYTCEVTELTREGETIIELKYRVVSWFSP

B1: 单克隆细胞株7G7分泌的鼠抗人CD47单克隆抗体 (antibody, V domains shown)
VH: VKLQQSGAELARPGASVKLSCTASGYTFTDYYINWVRQRTGQGLEWIGDINPGRGKTYYIEKFKGKATLTADKSSSTAYMQLSSLTSEDSAVYFCARGGLRRFDYWGQGTTVTVSS
VL: DIELTQSPAIMSVSPGEKVTMTCRASSSVSSSYLHWYQQKSGVSPKLWIYSTSTLASGVPARFSGSGSGTSYSLTISSVEAADAATYYCQQYSGYPYTFGGGTKVEIKR
- Ka: 1.39e+08 M⁻¹
